The source of these data is paper PMC3003441 (Nature cell biology, 2010).

For the assay, the target named is N-terminally flag-tagged Ubr1 (^fUbr1), full length (S. cerevisiae, UniProt P19812 1-1950). Briefly: co-IP.
Sequence of N-terminally flag-tagged Ubr1 (^fUbr1), full length (P19812 whole entry): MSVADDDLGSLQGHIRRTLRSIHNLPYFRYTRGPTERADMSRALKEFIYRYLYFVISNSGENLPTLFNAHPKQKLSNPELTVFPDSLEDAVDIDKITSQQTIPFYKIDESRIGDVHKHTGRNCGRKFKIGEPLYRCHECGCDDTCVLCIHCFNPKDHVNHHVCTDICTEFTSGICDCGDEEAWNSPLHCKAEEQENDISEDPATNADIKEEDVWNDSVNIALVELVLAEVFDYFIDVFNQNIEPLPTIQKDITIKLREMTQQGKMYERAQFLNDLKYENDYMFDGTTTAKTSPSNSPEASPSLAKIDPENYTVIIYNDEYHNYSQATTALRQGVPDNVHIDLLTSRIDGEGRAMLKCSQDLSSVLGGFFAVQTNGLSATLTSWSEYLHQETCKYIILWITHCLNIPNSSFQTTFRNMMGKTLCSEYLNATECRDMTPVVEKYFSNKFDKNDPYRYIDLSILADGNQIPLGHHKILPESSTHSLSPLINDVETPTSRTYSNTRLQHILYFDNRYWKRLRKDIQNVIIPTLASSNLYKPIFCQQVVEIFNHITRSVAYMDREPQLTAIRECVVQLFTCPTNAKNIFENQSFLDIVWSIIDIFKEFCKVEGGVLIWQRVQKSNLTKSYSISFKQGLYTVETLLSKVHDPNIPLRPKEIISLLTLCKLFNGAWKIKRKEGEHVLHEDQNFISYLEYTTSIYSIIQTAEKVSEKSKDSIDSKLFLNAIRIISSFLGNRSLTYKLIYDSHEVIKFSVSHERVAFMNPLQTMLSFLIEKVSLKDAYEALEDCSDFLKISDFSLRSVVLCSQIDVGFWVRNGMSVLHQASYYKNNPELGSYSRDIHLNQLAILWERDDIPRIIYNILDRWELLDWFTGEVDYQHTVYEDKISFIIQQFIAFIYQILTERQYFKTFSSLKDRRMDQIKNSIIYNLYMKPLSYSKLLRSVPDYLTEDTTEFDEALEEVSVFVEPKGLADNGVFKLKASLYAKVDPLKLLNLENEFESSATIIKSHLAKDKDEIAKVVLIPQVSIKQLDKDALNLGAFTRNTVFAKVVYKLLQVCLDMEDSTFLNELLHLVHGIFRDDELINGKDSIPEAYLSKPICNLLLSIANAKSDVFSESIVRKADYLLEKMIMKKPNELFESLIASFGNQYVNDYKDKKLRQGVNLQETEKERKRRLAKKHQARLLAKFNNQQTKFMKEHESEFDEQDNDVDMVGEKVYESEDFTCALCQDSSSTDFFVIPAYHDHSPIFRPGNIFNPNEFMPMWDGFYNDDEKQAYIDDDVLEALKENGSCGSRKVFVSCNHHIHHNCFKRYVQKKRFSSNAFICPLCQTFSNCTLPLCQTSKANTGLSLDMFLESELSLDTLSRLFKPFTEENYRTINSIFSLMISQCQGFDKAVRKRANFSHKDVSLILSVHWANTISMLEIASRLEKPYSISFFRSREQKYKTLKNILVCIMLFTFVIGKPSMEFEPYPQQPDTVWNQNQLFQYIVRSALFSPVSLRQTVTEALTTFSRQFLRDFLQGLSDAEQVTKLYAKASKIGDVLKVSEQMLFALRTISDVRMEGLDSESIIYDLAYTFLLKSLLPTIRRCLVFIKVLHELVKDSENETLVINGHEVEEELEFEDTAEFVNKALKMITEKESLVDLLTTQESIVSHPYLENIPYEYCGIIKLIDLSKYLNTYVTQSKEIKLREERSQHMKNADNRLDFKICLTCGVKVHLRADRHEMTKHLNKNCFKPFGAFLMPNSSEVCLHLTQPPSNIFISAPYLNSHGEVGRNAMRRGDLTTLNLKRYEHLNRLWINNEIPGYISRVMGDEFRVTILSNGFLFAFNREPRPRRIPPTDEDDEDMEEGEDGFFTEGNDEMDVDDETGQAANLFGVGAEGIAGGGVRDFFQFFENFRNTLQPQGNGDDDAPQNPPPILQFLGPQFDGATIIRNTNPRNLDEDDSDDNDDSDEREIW

B1: flag-tagged Ufd4 (^fUfd4), purified (enzyme, S. cerevisiae, UniProt P33202 1-1483, looked up)
chain: MSENNSHNLDEHESHSENSDYMMDTQVEDDYDEDGHVQGEYSYYPDEDEDEHMLSSVGSFEADDGEDDDNDYHHEDDSGLLYGYHRTQNGSDEDRNEEEDGLERSHDNNEFGSNPLHLPDILETFAQRLEQRRQTSEGLGQHPVGRTLPEILSMIGGRMERSAESSARNERISKLIENTGNASEDPYIAMESLKELSENILMMNQMVVDRIIPMETLIGNIAAILSDKILREELELQMQACRCMYNLFEVCPESISIAVDEHVIPILQGKLVEISYIDLAEQVLETVEYISRVHGRDILKTGQLSIYVQFFDFLTIHAQRKAIAIVSNACSSIRTDDFKTIVEVLPTLKPIFSNATDQPILTRLVNAMYGICGALHGVDKFETLFSLDLIERIVQLVSIQDTPLENKLKCLDILTVLAMSSDVLSRELREKTDIVDMATRSFQHYSKSPNAGLHETLIYVPNSLLISISRFIVVLFPPEDERILSADKYTGNSDRGVISNQEKFDSLVQCLIPILVEIYTNAADFDVRRYVLIALLRVVSCINNSTAKAINDQLIKLIGSILAQKETASNANGTYSSEAGTLLVGGLSLLDLICKKFSELFFPSIKREGIFDLVKDLSVDFNNIDLKEDGNENISLSDEEGDLHSSIEECDEGDEEYDYEFTDMEIPDSVKPKKISIHIFRTLSLAYIKNKGVNLVNRVLSQMNVEQEAITEELHQIEGVVSILENPSTPDKTEEDWKGIWSVLKKCIFHEDFDVSGFEFTSTGLASSITKRITSSTVSHFILAKSFLEVFEDCIDRFLEILQSALTRLENFSIVDCGLHDGGGVSSLAKEIKIKLVYDGDASKDNIGTDLSSTIVSVHCIASFTSLNEFLRHRMVRMRFLNSLIPNLTSSSTEADREEEENCLDHMRKKNFDFFYDNEKVDMESTVFGVIFNTFVRRNRDLKTLWDDTHTIKFCKSLEGNNRESEAAEEANEGKKLRDFYKKREFAQVDTGSSADILTLLDFLHSCGVKSDSFINSKLSAKLARQLDEPLVVASGALPDWSLFLTRRFPFLFPFDTRMLFLQCTSFGYGRLIQLWKNKSKGSKDLRNDEALQQLGRITRRKLRISRKTIFATGLKILSKYGSSPDVLEIEYQEEAGTGLGPTLEFYSVVSKYFARKSLNMWRCNSYSYRSEMDVDTTDDYITTLLFPEPLNPFSNNEKVIELFGYLGTFVARSLLDNRILDFRFSKVFFELLHRMSTPNVTTVPSDVETCLLMIELVDPLLAKSLKYIVANKDDNMTLESLSLTFTVPGNDDIELIPGGCNKSLNSSNVEEYIHGVIDQILGKGIEKQLKAFIEGFSKVFSYERMLILFPDELVDIFGRVEEDWSMATLYTNLNAEHGYTMDSSIIHDFISIISAFGKHERRLFLQFLTGSPKLPIGGFKSLNPKFTVVLKHAEDGLTADEYLPSVMTCANYLKLPKYTSKDIMRSRLCQAIEEGAGAFLLS
With B1, the binding result is reported as “binds”.
